Read-outs that look alike come from different tables or passages of the source. Numbered stars: 1 amine (or outer) side, 2 acyl side, 3 side chain; on linkers, the order of the positions; unused ones are H or OH. Bridge positions count the residues as written; N and C are the ends. Square brackets hold non-standard residues; d marks the D form. Ends that are not written are not given here. Phe(4-guanidino) = N=C(N)Nc1ccc(C[C@H](N)C(=O)O)cc1; TBMB = c1c(C[*:1])cc(C[*:3])cc1C[*:2]; NMeR = CN[C@@H](CCCNC(=N)N)C(=O)O; hArg = N=C(N)NCCCC[C@H](N)C(=O)O; Aze = O=C(O)[C@@H]1CCN1; Abu = CC[C@H](N)C(=O)O
Key:
human plasma Kallikrein [1] = target: T1, human plasma Kallikrein (human, UniProt P03952 20-638, limits assumed); test: enzyme inhibition assay
T1 construct: also called hPK; human PK
T1 sequence (P03952 20-638 limits assumed): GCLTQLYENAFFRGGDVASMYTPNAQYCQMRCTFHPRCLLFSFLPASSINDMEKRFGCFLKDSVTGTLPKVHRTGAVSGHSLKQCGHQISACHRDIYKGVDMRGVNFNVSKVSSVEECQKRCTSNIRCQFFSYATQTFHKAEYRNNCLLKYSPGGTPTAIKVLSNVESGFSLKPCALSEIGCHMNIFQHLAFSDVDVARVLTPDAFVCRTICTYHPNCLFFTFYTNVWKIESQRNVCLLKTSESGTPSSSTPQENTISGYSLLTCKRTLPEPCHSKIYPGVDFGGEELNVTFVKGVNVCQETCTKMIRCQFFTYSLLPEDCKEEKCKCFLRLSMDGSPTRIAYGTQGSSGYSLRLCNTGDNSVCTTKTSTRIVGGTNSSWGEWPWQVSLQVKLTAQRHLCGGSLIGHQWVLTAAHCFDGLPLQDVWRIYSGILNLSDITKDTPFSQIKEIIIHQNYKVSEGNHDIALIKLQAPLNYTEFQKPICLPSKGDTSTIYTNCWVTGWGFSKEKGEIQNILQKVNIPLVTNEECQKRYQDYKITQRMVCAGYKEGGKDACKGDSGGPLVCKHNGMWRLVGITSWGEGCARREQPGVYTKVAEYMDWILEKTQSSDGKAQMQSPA

Monkey plasma Kallikrein = target: T2, Monkey plasma Kallikrein (monkey (Macaca mulatta), UniProt A0A1D5Q7U7 391-638); test: enzyme inhibition assay
T2 construct: domain: catalytic domain; also called mPK
T2 sequence (A0A1D5Q7U7 entry or part of it): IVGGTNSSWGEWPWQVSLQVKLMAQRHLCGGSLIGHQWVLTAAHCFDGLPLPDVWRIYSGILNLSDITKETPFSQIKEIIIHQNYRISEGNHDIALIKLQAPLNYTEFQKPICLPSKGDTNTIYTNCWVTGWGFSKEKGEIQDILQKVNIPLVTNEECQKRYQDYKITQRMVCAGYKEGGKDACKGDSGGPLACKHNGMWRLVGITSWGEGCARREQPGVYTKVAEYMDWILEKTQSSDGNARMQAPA

Rat plasma Kallikrein [2] = target: T3, Rat plasma Kallikrein (rat, UniProt P14272 391-638, limits assumed); test: enzyme inhibition assay
T3 construct: domain: catalytic domain; also called rPK; rat PK
T3 sequence (P14272 391-638 limits assumed): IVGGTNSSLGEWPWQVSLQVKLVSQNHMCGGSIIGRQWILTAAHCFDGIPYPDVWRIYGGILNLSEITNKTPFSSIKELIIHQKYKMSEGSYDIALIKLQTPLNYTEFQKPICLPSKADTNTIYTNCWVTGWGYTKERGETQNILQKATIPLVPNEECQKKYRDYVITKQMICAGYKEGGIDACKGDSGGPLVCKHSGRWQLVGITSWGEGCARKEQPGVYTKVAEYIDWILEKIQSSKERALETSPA

human plasma Kallikrein [3] = target: T1, human plasma Kallikrein; test: enzyme inhibition assay; remark: listed apart in the source
Human factor XIa = target: T4, Human factor XIa (human, UniProt P03951 19-625); test: enzyme inhibition assay
T4 construct: also called hfXIa

human plasma Kallikrein [4] = target: T1, human plasma Kallikrein; test: enzyme inhibition assay; remark: listed apart in the source
Rat plasma Kallikrein [5] = target: T3, Rat plasma Kallikrein; test: enzyme inhibition assay; values relative, not absolute
human plasma Kallikrein [6] = target: T1, human plasma Kallikrein; test: enzyme inhibition assay; remark: listed apart in the source
human plasma Kallikrein [7] = target: T1, human plasma Kallikrein; test: enzyme inhibition assay; remark: listed apart in the source
human plasma Kallikrein [8] = target: T1, human plasma Kallikrein; test: enzyme inhibition assay; remark: listed apart in the source
human plasma Kallikrein [9] = target: T1, human plasma Kallikrein; test: enzyme inhibition assay; remark: listed apart in the source
human plasma Kallikrein [10] = target: T1, human plasma Kallikrein; test: enzyme inhibition assay; remark: listed apart in the source
Human plasmin = Human plasmin (human, UniProt P00747 97-810); test: enzyme inhibition assay
Human plasmin, sequence (P00747 97-810 limits assumed): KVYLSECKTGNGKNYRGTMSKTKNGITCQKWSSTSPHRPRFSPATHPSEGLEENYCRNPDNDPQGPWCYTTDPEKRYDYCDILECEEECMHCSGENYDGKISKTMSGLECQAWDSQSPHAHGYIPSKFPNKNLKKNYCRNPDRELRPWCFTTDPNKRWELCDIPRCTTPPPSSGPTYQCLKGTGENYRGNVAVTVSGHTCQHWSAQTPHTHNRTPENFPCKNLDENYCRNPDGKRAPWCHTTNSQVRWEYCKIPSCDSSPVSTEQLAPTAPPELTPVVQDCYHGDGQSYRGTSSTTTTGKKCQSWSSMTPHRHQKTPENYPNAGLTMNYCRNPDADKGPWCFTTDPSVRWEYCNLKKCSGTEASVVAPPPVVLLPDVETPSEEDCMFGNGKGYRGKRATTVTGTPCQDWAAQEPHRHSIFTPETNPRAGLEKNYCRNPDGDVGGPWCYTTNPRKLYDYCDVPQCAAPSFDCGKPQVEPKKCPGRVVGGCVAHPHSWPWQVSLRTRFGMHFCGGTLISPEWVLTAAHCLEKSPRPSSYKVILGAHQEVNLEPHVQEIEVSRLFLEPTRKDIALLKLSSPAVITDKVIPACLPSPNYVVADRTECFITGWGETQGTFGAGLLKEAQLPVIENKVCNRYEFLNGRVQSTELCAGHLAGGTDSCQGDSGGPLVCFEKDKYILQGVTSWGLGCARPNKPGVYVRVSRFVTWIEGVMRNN

human plasma Kallikrein [11] = target: T1, human plasma Kallikrein; test: enzyme inhibition assay; remark: listed apart in the source
human plasma Kallikrein [12] = target: T1, human plasma Kallikrein; test: enzyme inhibition assay; remark: listed apart in the source
human plasma Kallikrein [13] = target: T1, human plasma Kallikrein; test: enzyme inhibition assay; remark: listed apart in the source
human plasma Kallikrein [14] = target: T1, human plasma Kallikrein; test: enzyme inhibition assay; remark: listed apart in the source
human plasma Kallikrein [15] = target: T1, human plasma Kallikrein; test: enzyme inhibition assay; remark: listed apart in the source
human plasma Kallikrein [16] = target: T1, human plasma Kallikrein; test: enzyme inhibition assay; remark: listed apart in the source
Rat plasma Kallikrein [17] = target: T3, Rat plasma Kallikrein; test: enzyme inhibition assay; values relative, not absolute; remark: listed apart in the source
human plasma Kallikrein [18] = target: T1, human plasma Kallikrein; test: enzyme inhibition assay; remark: listed apart in the source
human plasma Kallikrein [19] = target: T1, human plasma Kallikrein; test: enzyme inhibition assay; remark: listed apart in the source

In the case of Ac-CSW[Aze][Abu][NMeR]CLHQDLC-NH2 (linker 1-7-13 via TBMB) [Ac-(06-34-18) Aze3 Aba4 NMeArg5], the Ki (human plasma Kallikrein [1]) is reported as 2.8 nM.

H-ACSDRFRNCPADEALCG-NH2 (linker 2-9-16 via TBMB, 6x6 bicyclic peptide) [PK15] gave a Ki (Monkey plasma Kallikrein) of 4 nM, a Ki (Rat plasma Kallikrein [2]) of 941 nM and a Ki (human plasma Kallikrein [3]) of 3 nM. For the same binder, the Ki (Human factor XIa) was 75000 nM.

ACFKACRVNCA (linker 2-6-10 via TBMB, also called PK117) [3B3] showed a Ki (Monkey plasma Kallikrein) of 11 nM, a Ki (Rat plasma Kallikrein [2]) of 24 nM and a Ki (Human factor XIa) of 57 nM.

Binder Ac-CSW[Aze][Abu][Phe(4-guanidino)]CLHQDLC-NH2 (linker 1-7-13 via TBMB) [Ac-(06-34-18) Aze3 Aba4 4GuanPhe5] has a Ki (human plasma Kallikrein [1]) of 0.2 nM.

For ACFKHCRVACA (linker 2-6-10 via TBMB, also called PK123) [3B8], the Ki (human plasma Kallikrein [4]) was 0.95 nM, the Ki (Monkey plasma Kallikrein) was 9 nM and the Ki (Rat plasma Kallikrein [2]) was 12 nM. The Ki (human plasma Kallikrein [3]) was 7 nM and the Ki (Human factor XIa) was 52 nM.

B1: Ac-(06-34-18) 4GuanPhe5 (peptide)
peptide: Ac-CSWPA[Phe(4-guanidino)]CLHQDLC-NH2
modifications: linker 1-7-13 via TBMB
SMILES: CC(=O)N[C@H]1CSCc2cc3cc(c2)CSC[C@H](NC(=O)[C@H](Cc2ccc(NC(=N)N)cc2)NC(=O)[C@H](C)NC(=O)[C@@H]2CCCN2C(=O)[C@H](Cc2c[nH]c4ccccc24)NC(=O)[C@H](CO)NC1=O)C(=O)N[C@@H](CC(C)C)C(=O)N[C@@H](Cc1c[nH]cn1)C(=O)N[C@@H](CCC(N)=O)C(=O)N[C@@H](CC(=O)O)C(=O)N[C@@H](CC(C)C)C(=O)N[C@H](C(N)=O)CSC3
Binder B1 has an IC50 (Rat plasma Kallikrein [5]) of 21 nM, a Ki (human plasma Kallikrein [6]) of 0.3 nM and a Ki (human plasma Kallikrein [7]) of 0.34 nM.

B2: Ac-(06-34-18) NMeArg5 (peptide)
peptide: Ac-CSWPA[NMeR]CLHQDLC-NH2
modifications: linker 1-7-13 via TBMB
SMILES: CC(=O)N[C@H]1CSCc2cc3cc(c2)CSC[C@H](NC(=O)[C@H](CCCNC(=N)N)N(C)C(=O)[C@H](C)NC(=O)[C@@H]2CCCN2C(=O)[C@H](Cc2c[nH]c4ccccc24)NC(=O)[C@H](CO)NC1=O)C(=O)N[C@@H](CC(C)C)C(=O)N[C@@H](Cc1c[nH]cn1)C(=O)N[C@@H](CCC(N)=O)C(=O)N[C@@H](CC(=O)O)C(=O)N[C@@H](CC(C)C)C(=O)N[C@H](C(N)=O)CSC3
For B2, the “fold reduction in affinity against wildtype peptide” value (human plasma Kallikrein [8]) was 20 fold, the IC50 (Rat plasma Kallikrein [5]) was 98 nM and the Ki (human plasma Kallikrein [9]) was 3.5 nM. The Ki (human plasma Kallikrein [7]) was 3.5 nM.

ACTYPYKCLHQNLCA (linker 2-8-14 via TBMB, also called PK112) [2A10] gave a Ki (human plasma Kallikrein [10]) of 4.98 nM, a Ki (Monkey plasma Kallikrein) of 23 nM and a Ki (Rat plasma Kallikrein [2]) of 66 nM. The Ki (human plasma Kallikrein [3]) was 18 nM and the Ki (Human plasmin) was 30000 nM.

Ac-CSW[Aze][Abu][hArg]CLHQDLC-NH2 (linker 1-7-13 via TBMB) [Ac-(06-34-18) Aze3 Aba4 HomoArg5] showed a Ki (human plasma Kallikrein [1]) of 0.9 nM.

B3: Ac-06-34-18(TMB)-NH2 (peptide)
peptide: Ac-CSWPARCLHQDLC-NH2
modifications: linker 1-7-13 via TBMB
SMILES: CC(=O)N[C@H]1CSCc2cc3cc(c2)CSC[C@H](NC(=O)[C@H](CCCNC(=N)N)NC(=O)[C@H](C)NC(=O)[C@@H]2CCCN2C(=O)[C@H](Cc2c[nH]c4ccccc24)NC(=O)[C@H](CO)NC1=O)C(=O)N[C@@H](CC(C)C)C(=O)N[C@@H](Cc1c[nH]cn1)C(=O)N[C@@H](CCC(N)=O)C(=O)N[C@@H](CC(=O)O)C(=O)N[C@@H](CC(C)C)C(=O)N[C@H](C(N)=O)CSC3
notes: also called Ac-(06-34-18) wildtype; Ac-(06-34-18) WPAR
With B3 the Ki (human plasma Kallikrein [11]) was 0.17 nM, the IC50 (Rat plasma Kallikrein [5]) was 1.7 nM and the Ki (human plasma Kallikrein [9]) was 0.17 nM. For the same binder, the Ki (human plasma Kallikrein [6]) was 0.17 nM, the Ki (human plasma Kallikrein [12]) was 0.17 nM and the Ki (human plasma Kallikrein [1]) was 0.17 nM. For the same binder, the Ki (human plasma Kallikrein [13]) was 0.17 nM, the Ki (human plasma Kallikrein [14]) was 0.17 nM and the Ki (human plasma Kallikrein [15]) was 0.17 nM. The Ki (human plasma Kallikrein [16]) was 0.17 nM and the Ki (human plasma Kallikrein [7]) was 0.17 nM.

B4: Ac-(06-34-18) Phe2 Tyr4 NMeArg5 (peptide)
peptide: Ac-CSFPY[NMeR]CLHQDLC-NH2
modifications: linker 1-7-13 via TBMB
SMILES: CC(=O)N[C@H]1CSCc2cc3cc(c2)CSC[C@H](NC(=O)[C@H](CCCNC(=N)N)N(C)C(=O)[C@H](Cc2ccc(O)cc2)NC(=O)[C@@H]2CCCN2C(=O)[C@H](Cc2ccccc2)NC(=O)[C@H](CO)NC1=O)C(=O)N[C@@H](CC(C)C)C(=O)N[C@@H](Cc1c[nH]cn1)C(=O)N[C@@H](CCC(N)=O)C(=O)N[C@@H](CC(=O)O)C(=O)N[C@@H](CC(C)C)C(=O)N[C@H](C(N)=O)CSC3
B4 showed an IC50 (Rat plasma Kallikrein [17]) of 60.2 nM and a Ki (human plasma Kallikrein [18]) of 3.56 nM.

B5: Ac-(06-34-18) Phe2 Tyr4 HomoArg5 (peptide)
peptide: Ac-CSFPY[hArg]CLHQDLC-NH2
modifications: linker 1-7-13 via TBMB
SMILES: CC(=O)N[C@H]1CSCc2cc3cc(c2)CSC[C@H](NC(=O)[C@H](CCCCNC(=N)N)NC(=O)[C@H](Cc2ccc(O)cc2)NC(=O)[C@@H]2CCCN2C(=O)[C@H](Cc2ccccc2)NC(=O)[C@H](CO)NC1=O)C(=O)N[C@@H](CC(C)C)C(=O)N[C@@H](Cc1c[nH]cn1)C(=O)N[C@@H](CCC(N)=O)C(=O)N[C@@H](CC(=O)O)C(=O)N[C@@H](CC(C)C)C(=O)N[C@H](C(N)=O)CSC3
With B5 the IC50 (Rat plasma Kallikrein [17]) was 19.7 nM and the Ki (human plasma Kallikrein [18]) was 0.77 nM.

B6: Ac-06-34-18(TMB)-NH2 Phe2Tyr4 (peptide)
peptide: Ac-CSFPYRCLHQDLC-NH2
modifications: linker 1-7-13 via TBMB
SMILES: CC(=O)N[C@H]1CSCc2cc3cc(c2)CSC[C@H](NC(=O)[C@H](CCCNC(=N)N)NC(=O)[C@H](Cc2ccc(O)cc2)NC(=O)[C@@H]2CCCN2C(=O)[C@H](Cc2ccccc2)NC(=O)[C@H](CO)NC1=O)C(=O)N[C@@H](CC(C)C)C(=O)N[C@@H](Cc1c[nH]cn1)C(=O)N[C@@H](CCC(N)=O)C(=O)N[C@@H](CC(=O)O)C(=O)N[C@@H](CC(C)C)C(=O)N[C@H](C(N)=O)CSC3
notes: also called Ac-(06-34-18) FPYR; Ac-(06-34-18) Phe2 Tyr4
Binder B6 has a Ki (human plasma Kallikrein [11]) of 0.46 nM, an IC50 (Rat plasma Kallikrein [17]) of 13.8 nM and a Ki (human plasma Kallikrein [18]) of 0.46 nM. For the same binder, the Ki (human plasma Kallikrein [19]) was 0.46 nM.

B7: Ac-(06-34-18) Phe2 Tyr4 4GuanPhe5 (peptide)
peptide: Ac-CSFPY[Phe(4-guanidino)]CLHQDLC-NH2
modifications: linker 1-7-13 via TBMB
SMILES: CC(=O)N[C@H]1CSCc2cc3cc(c2)CSC[C@H](NC(=O)[C@H](Cc2ccc(NC(=N)N)cc2)NC(=O)[C@H](Cc2ccc(O)cc2)NC(=O)[C@@H]2CCCN2C(=O)[C@H](Cc2ccccc2)NC(=O)[C@H](CO)NC1=O)C(=O)N[C@@H](CC(C)C)C(=O)N[C@@H](Cc1c[nH]cn1)C(=O)N[C@@H](CCC(N)=O)C(=O)N[C@@H](CC(=O)O)C(=O)N[C@@H](CC(C)C)C(=O)N[C@H](C(N)=O)CSC3
Work on B7 yielded an IC50 (Rat plasma Kallikrein [17]) of 2.5 nM and a Ki (human plasma Kallikrein [18]) of 0.4 nM.

Reference: patent publication US10800813 (Bicycle, dated 2020)
